The numbers were not newly measured in article PMC5453503, which cites them from elsewhere.

“And” between values parts separate entries of the source, which are not always exact repeats. Identical values can stand only once.

The data set concerns the target VEGFR2 (Homo sapiens) (UniProt P35968).
Sequence of UniProt P35968 (P35968 20-1356): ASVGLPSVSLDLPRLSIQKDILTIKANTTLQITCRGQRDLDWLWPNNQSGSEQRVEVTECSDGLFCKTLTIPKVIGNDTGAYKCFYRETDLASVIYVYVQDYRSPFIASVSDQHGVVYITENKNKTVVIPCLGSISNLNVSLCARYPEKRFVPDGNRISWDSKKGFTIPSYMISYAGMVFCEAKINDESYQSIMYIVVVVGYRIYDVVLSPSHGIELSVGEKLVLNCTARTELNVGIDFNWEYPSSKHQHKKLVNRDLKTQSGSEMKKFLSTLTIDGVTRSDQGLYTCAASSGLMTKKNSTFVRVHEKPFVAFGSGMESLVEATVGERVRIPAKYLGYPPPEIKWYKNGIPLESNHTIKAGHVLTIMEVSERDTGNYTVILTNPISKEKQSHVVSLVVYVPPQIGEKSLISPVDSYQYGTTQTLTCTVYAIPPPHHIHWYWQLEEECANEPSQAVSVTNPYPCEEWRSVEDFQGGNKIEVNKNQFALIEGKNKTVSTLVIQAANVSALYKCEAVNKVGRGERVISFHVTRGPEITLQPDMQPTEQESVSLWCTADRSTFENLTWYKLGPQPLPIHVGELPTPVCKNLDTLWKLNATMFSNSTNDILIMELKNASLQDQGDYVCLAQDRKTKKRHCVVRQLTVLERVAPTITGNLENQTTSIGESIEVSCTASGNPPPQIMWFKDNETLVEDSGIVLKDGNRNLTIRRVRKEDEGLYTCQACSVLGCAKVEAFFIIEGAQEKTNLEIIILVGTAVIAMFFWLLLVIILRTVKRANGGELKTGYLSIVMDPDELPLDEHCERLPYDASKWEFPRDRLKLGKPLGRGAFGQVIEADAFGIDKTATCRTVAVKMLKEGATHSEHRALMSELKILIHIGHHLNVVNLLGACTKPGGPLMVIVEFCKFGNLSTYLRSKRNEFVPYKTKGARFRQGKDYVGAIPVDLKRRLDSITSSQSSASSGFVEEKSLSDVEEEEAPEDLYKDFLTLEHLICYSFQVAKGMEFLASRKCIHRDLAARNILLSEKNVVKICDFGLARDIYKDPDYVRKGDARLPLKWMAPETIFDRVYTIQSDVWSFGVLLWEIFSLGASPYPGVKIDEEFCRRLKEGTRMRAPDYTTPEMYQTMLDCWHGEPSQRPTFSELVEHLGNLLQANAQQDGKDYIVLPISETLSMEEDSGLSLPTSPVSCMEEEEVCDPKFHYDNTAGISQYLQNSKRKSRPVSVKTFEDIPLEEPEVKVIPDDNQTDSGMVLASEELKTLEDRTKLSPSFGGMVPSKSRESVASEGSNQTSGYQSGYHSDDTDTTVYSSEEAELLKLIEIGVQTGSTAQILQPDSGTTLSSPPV

As usually defined, the Kd is a measure of binding affinity in units of concentration. As to VEGF165a (from UniProt P15692), the Kd is 0.41 nM and 0.76 nM.
